Measurements reported in US20160083476A1 (CENTRE NATIONAL DE LA RECHERCHE SCIENTIFIQUE CNRS, published 2016).

T1: NCA expressed at the surface of MC38/NCA+ cells and granulocytes (UniProt P40199 35-320, limits assumed)
T1 construct: whole, on cells
T1 sequence (looked up): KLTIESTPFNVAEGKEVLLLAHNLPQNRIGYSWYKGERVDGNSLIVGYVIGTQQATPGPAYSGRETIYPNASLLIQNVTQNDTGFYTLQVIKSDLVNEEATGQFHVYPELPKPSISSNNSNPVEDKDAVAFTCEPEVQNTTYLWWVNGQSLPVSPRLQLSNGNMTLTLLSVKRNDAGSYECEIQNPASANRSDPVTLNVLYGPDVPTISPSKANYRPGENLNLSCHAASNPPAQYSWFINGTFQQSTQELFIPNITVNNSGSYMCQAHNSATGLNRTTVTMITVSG

T2: extracellular region of the human recombinant carcinoembryonary antigen (CEA) (human, UniProt P06731 35-676, limits assumed)
T2 construct: extracellular domain; The Biacore paragraph says only 'CEA'; also called rhCEA
T2 sequence (looked up): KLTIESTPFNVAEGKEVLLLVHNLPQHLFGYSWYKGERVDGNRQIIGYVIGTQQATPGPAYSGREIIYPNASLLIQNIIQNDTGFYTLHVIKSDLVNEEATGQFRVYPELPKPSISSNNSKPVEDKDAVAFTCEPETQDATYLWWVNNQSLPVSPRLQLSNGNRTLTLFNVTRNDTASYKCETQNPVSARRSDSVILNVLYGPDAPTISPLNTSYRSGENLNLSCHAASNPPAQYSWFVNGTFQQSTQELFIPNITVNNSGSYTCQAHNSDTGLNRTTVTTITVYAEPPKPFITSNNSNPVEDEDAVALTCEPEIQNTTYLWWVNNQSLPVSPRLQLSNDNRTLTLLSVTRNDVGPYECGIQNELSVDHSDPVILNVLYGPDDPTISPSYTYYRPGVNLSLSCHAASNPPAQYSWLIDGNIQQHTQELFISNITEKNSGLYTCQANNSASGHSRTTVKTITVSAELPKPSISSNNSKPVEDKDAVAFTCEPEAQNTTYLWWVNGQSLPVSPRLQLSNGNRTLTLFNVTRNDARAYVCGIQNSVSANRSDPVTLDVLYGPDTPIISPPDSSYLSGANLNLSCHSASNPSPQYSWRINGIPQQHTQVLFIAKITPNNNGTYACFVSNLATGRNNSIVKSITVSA


What was measured:
[1] = molecular target: T1, NCA expressed at the surface of …; experiment: FACS on MC38/NCA+ cells and granulocytes
[2] = molecular target: T2, extracellular region of the human …; experiment: SPR, BIACORE 3000; VHH captured on immobilised anti-c-myc mAb 9E10, CEA injected
Description: The VHH (in buffer: 10 mM HEPES; 150 mM NaCl; 3 mM EDTA; 0.005% surfactant P20) is then injected and then a range of CEA or CD16 is injected on the VHH immobilised on the 9E10.

[3] = molecular target: extracellular region of human recombinant (CD16B) receptor FcγRIIIB (human) (UniProt O75015); experiment: SPR, BIACORE 3000; VHH captured on immobilised anti-c-myc mAb 9E10, CD16 injected
[4] = molecular target: T1, NCA expressed at the surface of …; experiment: FACS on cells, detection by 9E10 anti-c-myc then anti-mouse IgG-FITC
Description: At each step, the samples are incubated for 45 min, 4° C., in the dark. Between each reaction, a washing is carried out with 2 ml of PBS/1% BSA. At the last step, the cells are taken up with 0.5 ml of PBS.

extracellular region of human recombinant (CD16B) receptor FcγRIIIB (human), sequence (O75015 17-200 limits assumed): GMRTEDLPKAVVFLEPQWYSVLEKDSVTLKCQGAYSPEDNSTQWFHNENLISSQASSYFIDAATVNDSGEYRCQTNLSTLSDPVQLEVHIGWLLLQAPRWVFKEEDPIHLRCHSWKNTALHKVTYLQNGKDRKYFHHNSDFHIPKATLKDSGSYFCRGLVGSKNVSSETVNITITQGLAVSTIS

| Binder | binding result [1] | Ka [2] | Kd [2] | koff [2] | kon [2] | Ka [3] | Kd [3] | koff [3] | kon [3] | binding result [4] |
| --- | --- | --- | --- | --- | --- | --- | --- | --- | --- | --- |
| Anti-CEA 25 VHH (VHH, Purified from E. coli periplasm; c-myc tag recognised by mAb 9E10; also called anti-CEA VHH clone 25) VHH: EVQLVESGGGLVQAGDSLTLTCTSPTLTFTPYRMGWYRQAPGKQRDLVADISGGDGRTTNYADFAKGRFTISRDNVKNAVYLQMNNLKPEDTAIYYCNTYVAIVGHARSWGQGTQVTVSS | no binding (tested: 1 to 5 µg/ml) | 3.15e+07 M⁻¹ | 31.7 nM | 0.0036 s⁻¹ | 113000 M⁻¹ s⁻¹ |  |  |  |  |  |
| Anti-CD16 c72 VHH (VHH) VHH: EVQLVESGGGLVQPGGSLTLSCVAAGSIFTFAMSWYRQAPRKERELVARIGTDDETMYKDSVKGRFTISRDNVKRTAGLQMNNLKPEDTAVYYCNARTDYRDWTVREYWGQGTQVTVSS |  |  |  |  |  | 1.06e+07 M⁻¹ | 94.6 nM | 0.0037 s⁻¹ | 39000 M⁻¹ s⁻¹ |  |
| Anti-CEA 43 VHH (VHH, Purified from E. coli periplasm; c-myc tag recognised by mAb 9E10; also called anti-CEA VHH clone 43) VHH: EVQLVESGGGLVQAGGSLTLSCTSSTLTFTPYRMGWYRQTPGKQRDLVADISPGDGSTKNYAGFAQGRFTISRDNIKNTVYLQMNDLKPEDTAVYYCNTYVAFVGRARTWGQGTQVTVTS | no binding (tested: 1 to 5 µg/ml) | 9.72e+07 M⁻¹ | 10.3 nM | 0.00183 s⁻¹ | 178000 M⁻¹ s⁻¹ |  |  |  |  |  |
| Anti-CD16 c13 VHH (VHH) VHH: EVQLVESGGGLVQPGGSLRLSCSFPGSIFSLTMGWYRQAPGKERELVTSATPGGDTNYADFVKGRFTISRDNARSIIYLQMNSLKPEDTAVYYCYARTRNWGTVWGQGTQVTVSS |  |  |  |  |  | 9.4e+06 M⁻¹ | 101 nM | 0.00567 s⁻¹ | 53000 M⁻¹ s⁻¹ |  |
| Anti-CEA 3 VHH (VHH, Purified from E. coli periplasm; c-myc tag recognised by mAb 9E10; also called anti-CEA VHH clone 3) VHH: EVQLVESGGGLVQAGGSLRLSCTSSTVTFTPYQMGWYRQAPGKQRALVADISTGGSRTNYADFAKGRFTISRDDVKNTVYLQMNNLKPEDTAVYYCNTYYAMIGHARNWGQGTQVTVSS |  | 7.38e+07 M⁻¹ | 13.6 nM | 0.00168 s⁻¹ | 124000 M⁻¹ s⁻¹ |  |  |  |  |  |
| Anti-CEA 17 VHH (VHH, also called VHH CEA 17; anti-CEA VHH clone 17) VHH: EVQLVESGGGFVQAGESLTLSCTSSTLTFTPYRMAWYRQAPGKQRDLVADISSGDGRTTNYADFAKGRFTISRDNIKNTVFLRMTNLKPEDTAVYYCNTFVSFVGIARSWGQGTQVTVSS |  |  |  |  |  |  |  |  |  | no binding |
| Anti-CD16 c21 VHH (VHH) VHH: EVQLVESGGELVQAGGSLRLSCAASGLTFSSYNMGWFRRAPGKEREFVASITWSGRDTFYADSVKGRFTISRDNAKNTVYLQMSSLKPEDTAVYYCAANPWPVAAPRSGTYWGQGTQVTVSS |  |  |  |  |  | 1.03e+08 M⁻¹ | 9.7 nM | 0.00279 s⁻¹ | 286000 M⁻¹ s⁻¹ |  |
